Laboratory results reported in patent US20100135948A1 (University of Pennsylvania, published 2010).
Where no end group is shown, it is not given here.

Legend:
desmoglein 3 = target: T1, desmoglein 3 (human, UniProt P32926 50-615, limits assumed); assay: ELISA
T1 construct: Antigen on commercial ELISA plates; also called Dsg3; Dsg 3
T1 sequence (looked up): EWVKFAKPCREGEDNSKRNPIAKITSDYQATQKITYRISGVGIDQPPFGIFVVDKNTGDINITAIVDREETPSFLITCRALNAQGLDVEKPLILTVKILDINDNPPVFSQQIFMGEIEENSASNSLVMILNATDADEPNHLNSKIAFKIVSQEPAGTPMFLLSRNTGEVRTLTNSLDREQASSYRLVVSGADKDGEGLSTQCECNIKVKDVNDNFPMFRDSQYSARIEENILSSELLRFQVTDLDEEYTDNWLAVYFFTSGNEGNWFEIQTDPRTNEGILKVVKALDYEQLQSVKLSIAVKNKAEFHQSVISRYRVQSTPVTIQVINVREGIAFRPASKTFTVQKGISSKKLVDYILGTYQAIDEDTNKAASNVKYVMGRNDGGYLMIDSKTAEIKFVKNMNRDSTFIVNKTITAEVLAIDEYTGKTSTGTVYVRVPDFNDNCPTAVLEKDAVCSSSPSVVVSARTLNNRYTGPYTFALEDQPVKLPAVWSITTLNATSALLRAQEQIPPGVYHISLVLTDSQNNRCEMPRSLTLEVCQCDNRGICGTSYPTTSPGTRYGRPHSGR

(D3)1d/2c scFv = target: T2, (D3)1d/2c scFv; assay: ELISA inhibition, monoclonal peptide phage preincubated with PV scFv, Dsg plate (Dsg3 by paragraph 281)
T2 construct: also called nonpathogenic PV mAb
Method: (§1) For ELISA inhibition assays, anti-idiotypic reagents were pre-incubated with PV mAbs for one hour at 37° C. prior to incubation on Dsg3 or Dsg1 ELISA plates (Rhigene/MBL), which were otherwise processed according to manufacturer's instructions. Anti-idiotypic antisera were effective and dose responsive at dilutions ranging from 1:3 to 1:6400, while peptide phage were used in inhibition assays from 10⁸ to 10¹⁰ pfu/well. PV scFv binding, detected with HRP-conjugated anti-HA secondary antibody (Roche), was titrated to a final OD450 reading of 0.4-1.0, which was within the linear range of detection.
(§2) Select peptide phage were tested for their ability to inhibit binding of PV mAbs to Dsg substrates by ELISA (Table 4).

(D3)3c/9 scFv = target: T3, (D3)3c/9 scFv; assay: as above
T3 construct: also called pathogenic PV mAb
Method: as §1, §2

(D31)2/29 scFv = target: T4, (D31)2/29 scFv; assay: as above
T4 construct: also called pathogenic PV mAb
Method: as §1, §2

(D31)12b/6 scFv = target: T5, (D31)12b/6 scFv; assay: as above
T5 construct: also called nonpathogenic PV mAb
Method: as §1, §2

(D31)2/28 scFv = target: T6, (D31)2/28 scFv; assay: as above
T6 construct: Human anti-Dsg3/Dsg1 scFv from the PV(1) phage library (pComb3X, nickel-purified, HA-detected); also called pathogenic PV mAb
Method: as §1, §2

B1: P14 peptide phage (peptide, not shown: large carriers)
peptide: TTLTLRH
modifications: also: displayed on phage, fused to pIII
notes: Monoclonal phage clone; tested as phage particle
binding result (desmoglein 3): no binding
percent inhibition ((D3)1d/2c scFv): 8%
percent inhibition ((D3)3c/9 scFv): 5%
percent inhibition ((D31)2/29 scFv): 16%
percent inhibition ((D31)12b/6 scFv): 13%
percent inhibition ((D31)2/28 scFv): 15%

B2: P8 peptide phage (peptide, not shown: large carriers)
peptide: TDKTPFLLWRVH
modifications: also: displayed on phage, fused to pIII coat protein, linker not given here
notes: as for B1
binding result (desmoglein 3): no binding

B3: P9 peptide phage (peptide, not shown: large carriers)
peptide: AKNPPTLIWKHT
modifications: also: displayed on phage, fused to pIII coat protein, linker not given here
notes: as for B1
binding result (desmoglein 3): no binding

B4: P10 peptide phage (peptide, not shown: large carriers)
peptide: QHNKSPNLYWRS
modifications: also: displayed on phage, fused to pIII
notes: as for B1
binding result (desmoglein 3): no binding

B5: P7 peptide phage (peptide, not shown: large carriers)
peptide: YSNKTPHLQWRL
modifications: also: displayed on phage, fused to pIII coat protein, linker not given here
notes: as for B1
binding result (desmoglein 3): no binding
percent inhibition ((D3)1d/2c scFv): 9%
percent inhibition ((D3)3c/9 scFv): 6%
percent inhibition ((D31)2/29 scFv): 83%
percent inhibition ((D31)12b/6 scFv): 8%
percent inhibition ((D31)2/28 scFv): 12%

B6: control peptide phage displaying a non-consensus sequence (peptide, not shown: large carriers)
peptide: DLNYFTLSSKRE
modifications: also: displayed on phage, fused to pIII coat protein, linker not given here
notes: Control phage clone; tested as phage particle; also called control phage
percent inhibition ((D3)1d/2c scFv): 8%
percent inhibition ((D3)3c/9 scFv): 8%
percent inhibition ((D31)2/29 scFv): 15%
percent inhibition ((D31)12b/6 scFv): 11%
percent inhibition ((D31)2/28 scFv): 2%

B7: P4 peptide phage (peptide, not shown: large carriers)
peptide: ANKTSPFLMWRL
modifications: also: displayed on phage, fused to pIII
notes: Monoclonal phage clone from round 3 of screening with (D31)2/29 IgG; tested as phage particle
binding result (desmoglein 3): no binding
percent inhibition ((D3)1d/2c scFv): 14%
percent inhibition ((D3)3c/9 scFv): 7%
percent inhibition ((D31)2/29 scFv): 78%
percent inhibition ((D31)12b/6 scFv): 10%
percent inhibition ((D31)2/28 scFv): 9%

B8: P5 peptide phage (peptide, not shown: large carriers)
peptide: WANKQPTIIWRS
modifications: also: displayed on phage, fused to pIII coat protein, linker not given here
notes: as for B1
binding result (desmoglein 3): no binding
